Two molecules from PMC8155523, “Non-covalent Interaction With SUMO Enhances the Activity of Human Cytomegalovirus Protein IE1” (Frontiers in Cell and Developmental Biology, 2021) can be followed below.

As usually defined, the Kd is the concentration at which binding is half-saturated. High values mean a looser complex, low ones a tighter complex.

This assay deals with T1, SUMO1 (UniProt P63165 1-97).
T1 construct: SUMO1, expressed from SUMO1-pQE80L; Uniformly 15N-labelled for NMR; Plasmid obtained from Rama Koti, TIFR, Mumbai; also called 15N-SUMO1; 15N-wt-SUMO1; source: E. coli BL21 (DE3), 15NH4Cl-M9 medium, purified (Ni-NTA, Superdex 75)
T1 sequence (P63165 1-97): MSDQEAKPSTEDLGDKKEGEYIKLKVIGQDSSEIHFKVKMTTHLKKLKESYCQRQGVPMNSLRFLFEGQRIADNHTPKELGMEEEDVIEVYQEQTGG
Briefly: NMR titration; IE1-SIM peptides titrated into ~0.3 mM 15N-SUMO1 or 15N-SUMO2 up to 1:4 (SUMO:SIM); 15N-HSQC, 298K, 800 MHz; PBS, 5 mM DTT, 10% D2O; CSPs fit to a 1:1 model. The conditions noted are these: both partners purified.

B1: IE1-SIM2 peptide (peptide)
peptide: PATIPLSSVIVAENSDQEE
notes: Human Cytomegalovirus Immediate-Early protein 1 (IE1), peptide around SIM2 (VIVA, aa 416-419); source: synthetic peptide (Lifetein)
For B1, the Kd came to 136 ± 32 µM.

B2: IE1-SIM1 peptide (peptide)
peptide: RPLITKPEVISVMKRRIEE
notes: Human Cytomegalovirus Immediate-Early protein 1 (IE1), peptide around SIM1 (VISV, aa 335-338); source: synthetic peptide (Lifetein)
On to B2, for which the Kd came to 134 ± 23.2 µM.
